Measurements published in US12710427B2, “Anti-human neurotensin receptor 1 antibody and use thereof” (National Health Research Institutes, priority 2020, dated 2026).

Columns and labels:
HA22T-Luc = assay: In vitro cell cytotoxicity assay (CellTiter-Glo); format: cell-based
Procedure: (§1) The number of living cells were determined using the CellTiter-Glo® Luminescent Cell Viability Assay (Promega G7571). Cells were plated in 96-well opaque Costar plates (Cat number 136101). In brief, 500-2500 cells in 90 μL media were added to each well in quadruplicate and allowed to adhere for 16 hours. Anti-NTSR1 (dose range: 0-500 nM), anti-NTSR1-MMAE (dose range: 0-500 nM) or Paclitaxel (dose range: 0-100 nM) were added in […] 72-120 hours, medium was removed, and 200 μL of CellTiter-Glo® viability reagent contain culture medium (1:1) was added to each well and placed on an orbital shaker in the dark for 2 minutes. The plate was allowed to sit at RT for 10 minutes before being read on a GloMax® Explorer Multimode Microplate Reader (GM3500).

Mahlavu = assay: In vitro cell cytotoxicity assay (CellTiter-Glo); format: cell-based
Procedure: as §1

H1299 = assay: In vitro cell cytotoxicity assay (CellTiter-Glo); format: cell-based
Procedure: as §1

A549 = assay: In vitro cell cytotoxicity assay (CellTiter-Glo); format: cell-based
Procedure: as §1

PC-3 = assay: In vitro cell cytotoxicity assay (CellTiter-Glo); format: cell-based
Procedure: as §1

HA22T = assay: In vitro cell cytotoxicity assay (CellTiter-Glo); format: cell-based
Procedure: as §1

[1] = tested on: NTSR1-expressing A549 cancer cells; assay: Internalization of h7C3-3 or h7C3-3-ADC in A549 cells (flow cytometry); format: cell-based; settings: A549, 1 μg/ml, 37° C. for 90 minutes
Procedure: A total of 1×10^6 cells were reacted with the indicated antibody or ADC in 100 μL of FACS buffer for 60 minutes at 4° C. and washed to remove excess antibody or ADC. Cells were then transferred to 4° C. or 37° C. for 90 minutes. To determine the relative number of h7C3-3 or h7C3-3-ADC on the cell surface, cells were stained with saturating amounts of FITC (BD Pharmingen™) conjugated mouse anti-human IgG antibodies and incubated for additional 60 minutes on ice. Cells were washed again and followed by an additional incubation with 1 ml PBS containing 0.5 mg/mL propidium iodide at 4° C. for 10 minutes. Data were collected on 10,000 living cells by FACS (Bio-Red S3e cell sorter). Fluorescence intensity from channel FL-1 was calculated with Flow Jo flow cytometry analysis software. Preparation of anti-NTSR1 antibody-drug conjugates (ADCs)

NTSR1 ECL2 peptide [2] = biological target: T1, NTSR1 ECL2 peptide (Homo sapiens, UniProt P30989); assay: Koff (s^-1)
Procedure: (§2) Table printed on a drawing sheet, FIG. 2
Head of the field: Koff (s^-1)
(§3) The patent's description of the figure: FIG. 2 is a graph showing affinity and kinetics data of h7C3-3. The binding affinity between h7C3-3 and NTSR1 ECL2 peptide was determined by surface plasmon resonance (SPR).
(§4) First copying reader's note: Table stands under the sensorgram plot headed h7C3-3 inside the same frame.
(§5) Where the first naming reader finds the target: description_of_the_figure: The binding affinity between h7C3-3 and NTSR1 ECL2 peptide was determined by surface plasmon resonance (SPR).

[3] = tested on: cyclic ECL2 peptide of NTSR1; assay: NTSR1-binding affinity ELISA (alanine scanning variants); set-up: species or system human; settings: h7C3-2 variants
cyclic ECL2 peptide of NTSR1, sequence (P30989 206-234 limits assumed): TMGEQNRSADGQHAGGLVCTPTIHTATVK
Procedure: The NTSR1-binding capacity of different antibodies were measured by ELISA. Briefly, NeutrAvidin 96-well plates (Pierce Cat:15128) were coated with cyL2-Biotin peptides at a final concentration of 5 μg/ml at […]. On the following day, the coating solution was removed, and the plates were blocked with 5% (v/v) non-fat dry milk in phosphate buffer saline (PBS) for 1 hour. After washing with PBST, gradient concentrations of anti-NTSR1 antibodies were added in triplicate. After 1 hour of incubation, the plate was washed three times with PBST, followed by the addition of horseradish peroxidase (HRP)-conjugated goat anti-human IgG Fc antibody (100 μL) into each well for an additional hour at RT. Finally, 100 μL of tetramethylbenzidine (TMB) substrate was added into each well to produce color for visualization. After 2 minutes of incubation, 100 μL of 2M H2SO4 was used to stop the reaction. The absorbance of each well was read at 450 nm with a plate reader. Flow cytometry

NTSR1 ECL2 peptide [4] = biological target: T1, NTSR1 ECL2 peptide; assay: Surface plasmon resonance with immobilized ECL2 peptide; settings: SPR, 1:1 binding model
Procedure: The interaction of NTSR1-specific mAbs with extracellular loop 2 (ECL2) peptides of NTSR1 was measured by surface plasmon resonance using an Open SPR (Nicoya, Canada) instrument. Biotin-conjugated ECL2 peptides were immobilized on a streptavidin-coated sensor chip by injecting the peptides diluted in HBS-EP5 buffer saline (20 mM HEPES, 250 mM NaCl, 3 mM EDTA, 0.05% Tween 20 and 0.5% BSA, pH 7.4) at a concentration of 10 μg/ml at a flow rate of 30 μl/min. For kinetic experiments, NTSR1-specific mAbs diluted in HBS-EP5 at concentrations ranging from 24 to 1.5 nM were injected at a flow rate of 30 μl/min over the immobilized ECL2 peptides. Binding of the NTSR1-specific mAbs at different concentrations to the immobilized ECL2 peptides were analyzed using the TraceDrawer software (Nicoya, Canada). Association rate (ka), dissociation rate (kd), and affinity (KD) were calculated using global analysis, fitting the data to a simple 1:1 binding model.

NTSR1 on A549 cells = biological target: T2, NTSR1 on A549 cells (Homo sapiens, UniProt P30989); assay: Flow cytometry (FACS) binding of anti-NTSR1 antibodies on A549 cells
T2 construct: endogenous in cells; host or cells: A549 (NSCLC)
T2 sequence (P30989 whole entry): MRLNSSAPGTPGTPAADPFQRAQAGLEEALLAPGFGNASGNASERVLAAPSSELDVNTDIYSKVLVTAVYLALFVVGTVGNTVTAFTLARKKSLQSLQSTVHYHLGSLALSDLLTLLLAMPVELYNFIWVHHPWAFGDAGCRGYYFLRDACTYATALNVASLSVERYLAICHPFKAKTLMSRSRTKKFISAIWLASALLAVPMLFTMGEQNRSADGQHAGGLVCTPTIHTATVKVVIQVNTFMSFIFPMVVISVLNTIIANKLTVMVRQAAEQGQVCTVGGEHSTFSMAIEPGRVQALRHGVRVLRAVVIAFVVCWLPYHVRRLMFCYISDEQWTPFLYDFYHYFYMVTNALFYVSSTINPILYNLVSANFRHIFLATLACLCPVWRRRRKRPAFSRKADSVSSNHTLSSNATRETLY
Procedure: A total of 1×10^6 cells were reacted with an anti-NTSR1 antibody in 100 μL of FACS buffer (PBS containing 0.5% BSA) for 60 minutes at 4° C. and washed two times to remove excess antibody. Secondary FITC (BD Pharmingen™) conjugated mouse anti-human IgG antibodies were incubated for an additional 60 minutes on ice. Cells were washed again and followed by an additional incubation with 1 ml PBS containing 0.5 mg/mL propidium iodide at 4° C. for 10 minutes. Data were collected on 10,000 living cells by FACS (Bio-Red S3e cell sorter). Fluorescence intensity from channel FL-1 was calculated with Flow Jo flow […] cytometry analysis software.

NTSR1 = biological target: T3, NTSR1 (Homo sapiens, UniProt P30989); assay: Immunohistochemistry staining of PC-3 xenograft tumor tissue; settings: 2 μg/ml antibody
T3 construct: Solid tumors were excised from PC-3 xenograft mice without treatment, followed by immunohistochemistry staining using antibodies specific for NTSR1; from tissue; host or cells: PC-3 prostate cancer xenograft tumour grown in mice
T3 sequence (P30989 whole entry): as above
Procedure: Deparaffinized tissue sections (4 μm) were subjected to heat-induced epitope retrieval in Tris-EDTA buffer (pH 9) at 95° C. for 30 minutes. The sections were blocked with inhibitor CM at 37° C. for 4 minutes. The slides were incubated with primary antibody including 2 μg/ml anti-NTSR1-B12 (SC-376958, Santa Cruz Biotechnology) and different […] antibody clones (7C3, h7C3-2 and h7C3-3) for 1 hour. The slides were then incubated with appropriate secondary antibodies; OmniMap anti-mouse-HRP for anti-NTSR1-B12 and anti-human-HRP for 7C3, h7C3-2 and h7C3-3 at RT for 30 minutes. The staining was performed with diamino-benzidine tetrahydrochloride.

NTSR1 ECL2 peptide [5] = biological target: T1, NTSR1 ECL2 peptide; assay: Kon (M^-1s^-1)
Procedure: as §2
Head of the field: Kon (M^-1s^-1)
as §3, §4, §5

A549 cells = assay: Internalization of NTSR-1 antibody (flow cytometry); format: cell-based; settings: A549, 10 μg/ml
Procedure: NTSR-1 antibody was used for flow cytometry analysis to compare the NTSR1 expression level in different lung and HCC cell lines, including A549, H1299, HA22T and Mahlavu. A total of 1×10^6 cells were reacted with the h7C3-3 antibody in FACS buffer for 60 minutes at 4° C. and washed two times to remove excess antibody. Cells were then transferred to 4° C. or 37° C. for 0, 0.5, 2, 5, 24 hours and followed by an additional incubation with secondary anti-human IgG Fc-PE (BioLegend) antibody for 60 minutes at 4° C. Cells were washed again, and data were collected by BD LSRFortessa. Fluorescence intensity from channel FL-1 was calculated with Flow Jo flow cytometry analysis software.

Koff (NTSR1 ECL2 peptide [2]): 0.000134 s⁻¹
binding affinity to peptide compared with h7C3-2 (in words) [3]: higher binding affinity
Kd (NTSR1 ECL2 peptide [4]): 0.3 nM
FACS binding (%, 1 μg/ml) (NTSR1 on A549 cells; A549 cells, antibody 1 μg/ml): 98.7%
FACS binding (%, 10 μg/ml) (NTSR1 on A549 cells; A549 cells, antibody 10 μg/ml): 100%
binding on cell surface (NTSR1 on A549 cells; A549 cells, one hour incubation at 4° C.): have binding efficiency on cell surface
affinity for NTSR1 on A549 cells compared with h7C3-2 (NTSR1 on A549 cells; FACS, h7C3-2 variant): higher affinity
EC50 (NTSR1 on A549 cells; relative mean fluorescence intensity (MFI) on A549 cells): 1.1 µg/mL
immunohistochemistry staining (NTSR1): clustered and more intense
Kon (NTSR1 ECL2 peptide [5]): 441000 M⁻¹ s⁻¹
B1: h7C3-3: 7C3 variant bearing T28A in CDR H1, Y100H in CDR H3 and S97A in CDR L3 (antibody, V domains shown)
VH: QVQLQQPGSVLVRPGASVKLSCKASGYAFTSSWIHWAKQRPGQGLEWIGQIRPNSGNTYYNEKFKVKATLTVDTSSSTAYVDLSSLTSEDSAVYYCARYHYGFDYWGQGTLVTVSS
VL: DVLMTQTPLSLPVSLGDQASISCRSSQSIVHSNGNTYLEWYLQKPGQSPKLLIYKVSNRFSGVPDRFSGSGSGTDFTLKISRVEAEDLGVYYCFQGAHLPWTFGGGTKLEIKR
IC50 (HA22T-Luc): > 500 nM
IC50 (Mahlavu): > 500 nM
IC50 (H1299): > 500 nM
IC50 (A549): > 500 nM
IC50 (PC-3): > 500 nM
IC50 (HA22T): > 500 nM
internalization efficiency [1]: internalized efficiently
mean fluorescence intensity (MFI) upon shifting cells from 4° C. to 37° C. (internalization) (A549 cells): decreased gradually
